Eight substances from PMC10173337 can be followed below.

Values joined by “and” are separate entries in the source; they are usually repeats but may differ in a detail not shown here. Equal values may be shown once.

The experiment deals with eight amino acid-mutated FcγRIIIa without glycosylation (ligand of the TSKgel FcR-IIIA-NPR column) (UniProt P08637). The experiment can be described thus: FcγRIIIa affinity column chromatography.
Chain of UniProt P08637 (P08637 17-208, change not shown): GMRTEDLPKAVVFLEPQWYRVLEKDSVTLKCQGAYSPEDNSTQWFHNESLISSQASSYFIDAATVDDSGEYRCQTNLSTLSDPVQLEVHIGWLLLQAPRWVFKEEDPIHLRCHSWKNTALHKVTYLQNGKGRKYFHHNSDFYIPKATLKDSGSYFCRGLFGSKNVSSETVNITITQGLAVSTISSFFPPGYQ
Consider “Fc fragment of rituximab after papain digestion 5 (domain or fragment)”, for which the retention time is 11.2 min and 13.6 min and 16 min.
In the case of “Fc fragment of rituximab with full-length glycan 10 (domain or fragment)”, the retention time worked out at 16.4 min.
On to full-length cetuximab 3 (antibody), for which the retention time is 10.7 min and 13.3 min and 15.1 min.
As for full-length mogamulizumab 4 (antibody), the retention time was 12.1 min and 14.8 min and 17.2 min.
full-length rituximab 1 (antibody): the retention time was 10.2 min and 12.6 min and 15 min.
On to “full-length rituximab with full-length glycan 8 (antibody)”, for which the retention time amounted to 15.6 min.
“full-length rituximab with trisaccharide 7 (antibody)” gave a retention time of 4.3 min.
Consider full-length trastuzumab 2 (antibody), for which the retention time is 9.8 min and 12.2 min and 14.7 min.
